Experimental data taken from patent US20110059469A1 (UNIVERSITY OF TOKYO, published 2011).
Positions count from the first letter of the chain named. Values belong to the binder of their own block, whether it stands above or below them.

Tests used:
human CLDN4 = target: T1, human CLDN4 (human, UniProt O14493 1-209); assay: flow cytometry on Ba/F3 cells forced to express human CLDN4
T1 construct: also called hCLDN4
T1 sequence: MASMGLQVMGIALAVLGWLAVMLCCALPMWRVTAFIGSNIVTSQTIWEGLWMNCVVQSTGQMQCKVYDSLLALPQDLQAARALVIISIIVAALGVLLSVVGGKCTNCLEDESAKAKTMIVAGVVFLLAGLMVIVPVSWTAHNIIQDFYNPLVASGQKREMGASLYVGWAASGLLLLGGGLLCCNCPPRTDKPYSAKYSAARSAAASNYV

human CLDN9 = target: T2, human CLDN9 (human, UniProt O95484 1-217); assay: flow cytometry on Ba/F3 cells forced to express human CLDN9
T2 construct: also called hCLDN9
T2 sequence: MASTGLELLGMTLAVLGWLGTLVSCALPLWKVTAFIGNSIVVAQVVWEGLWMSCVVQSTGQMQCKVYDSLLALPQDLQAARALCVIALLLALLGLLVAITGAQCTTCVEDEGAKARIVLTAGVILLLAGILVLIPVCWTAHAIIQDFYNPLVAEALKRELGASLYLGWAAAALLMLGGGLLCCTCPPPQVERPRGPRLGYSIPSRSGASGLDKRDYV

binding result (human CLDN4): binds
binding result (human CLDN9): binds
B1: AE1-16 (antibody, V domains shown)
VH: EVQLQQSGPELVKPGASVKISCKASGYSFTGYFMNWVKQSHGKSLEWIGRINPYNGDTFYNQKFKGKATLTVDKSSNTAHMELRSLTSEDSAVYYCARVLFLDFDDPYLMDYWGQGTSVTVSS
VL: ENVLTQSPAIMSATLGEKVTMSCRATSNVKYMYWYQQKSGASPKLWIYYTSNLASGVPARFSGSGSGTSYSLTISSVEAADAATYYCQQFTSSPSTFGAGTKLELK
notes: also called anti-human CLDN6 monoclonal antibody AE1-16

binding result (human CLDN4): binds
binding result (human CLDN9): binds
B2: AE49-11 (antibody, IgG2b, V domains shown)
VH: B1 VH with N77S
VL: B1 VL
notes: also called AE49-11 antibody; original IgG2b antibody

binding result (human CLDN9): binds
B3: AB3-1 (antibody, V domains shown)
VH: EVQLQQSGPELVKPGGSMKISCKASGYSFTGYTMNWVKQSHGKNLEWIGLINPYNGGISYNQKFKDKATLTMDKSSSTAYMELLSLTSEDSAIYFCARDYRYEGFDYWGQGTLVTVSA
VL: QIVLTQSPAIMSASLGERVTMTCTASSVVISTYLHWYQQKPGSSPKLWIYSTSNLASGVPVRFSGSGSGTSYSLTISSMEAEDAATYYCHQYHRSPWTFGGGTKLEIK
notes: also called anti-human CLDN6 monoclonal antibody AB3-1
